Target: Fc gamma receptor IIb (FcγRIIb) on GM-CSF macrophages (human (endogenous in monocyte-derived macrophages)) (UniProt P31994)
Sequence of UniProt P31994 (P31994 43-217): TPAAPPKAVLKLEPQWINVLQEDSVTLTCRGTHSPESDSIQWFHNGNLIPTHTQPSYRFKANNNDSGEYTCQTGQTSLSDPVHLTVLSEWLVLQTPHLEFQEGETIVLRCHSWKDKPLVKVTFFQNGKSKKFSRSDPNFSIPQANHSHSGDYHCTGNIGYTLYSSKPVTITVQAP

**Q.** Which reduction of TNFα release by gmMφ co-cultured 1:5 with cytokine activated T cells (Tck) for 20 h, with ICs (50 µg/ml) does the source give for “heat-aggregated immune complexes (IC) of human IgG” here?
**A.** 50%

Reference: paper PMC4207781
